Here are results for one substance from paper PMC9478404.

Common to all, as to test: ITC; DBD (500 μM) titrated into NRD (50 μM) at 19 °C; 150 mM NaCl, 20 mM Tris, 1 mM BME (pH 8); MicroCal VP-ITC; mean of three technical replicates
For orientation: In ITC the heat of successive injections is recorded.

The target in assay [1] is B-Myb NRD^510–600 (C-terminal half of the NRD) (human) (UniProt P10244).
Assay [2] has as its target B-Myb NRD^510–600 S577A (human) (UniProt P10244).
In assay [3] the target is B-Myb NRD^510–600 T538A (human) (UniProt P10244).
Chain of B-Myb NRD^510–600 T538A (human) (P10244 510-600 T538A): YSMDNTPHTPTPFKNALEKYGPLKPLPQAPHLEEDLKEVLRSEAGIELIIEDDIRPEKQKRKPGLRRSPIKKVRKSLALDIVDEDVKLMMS

Chain of B-Myb NRD^510–600 (C-terminal half of the NRD) (human) (P10244 510-600): as the sequence (P10244 510-600 T538A) above, with A29T counted along it
Chain of B-Myb NRD^510–600 S577A (human) (P10244 510-600 S577A): as the sequence (P10244 510-600 T538A) above, with A29T, S68A counted along it

In general, Kd refers to the equilibrium constant for the complex coming apart. Take “B-Myb DNA-binding domain (B-Myb^34–183) (from UniProt P10244-1 34-183) (domain or fragment)”: the Kd in assay [1] came out at 4.9 µM; in assay [2], 3.2 µM; in assay [3], 6.5 µM.
